The assay deals with Human FcRn (hFcRn), soluble α-chain/β2m heterodimer, P55899;P61769. Kind of assay: BLI (in vitro BLI-based FcRn platform). The note with it: chain shown with the change;, read off a plot.

B1: HCV1, fully human IgG1 mAb HCV (with CDB Vk CDRs): Vk CDR1-3 of HCV1 replaced by Vk CDRs of CDB1; residues not printed (protein)
chain 1: EVQLLESGGGVVQPGRSLRLSCTASGFTFNNYGMHWVRQTPGKGLEWLAVIWFDENNKYYADSVRGRFTISRDNSKNTLFLQMNSLKTEDTAMYYCARDISLVRDAFIYFDFWGLGTLVTVSS
chain 2: ELTLTQSPATLSLSPGERATLSCRASQSVSSSYLAWYQQKPGQAPRLLIYGASNRATGIPARFSGSGSGTDFTLTISSLEPEDFAVYYCQQYGSSTWTFGQGTRLEIK
As for B1, the other: Predicted Human t1/2, β (parent: est. 270) is 13.3 days.

B2: CDA1 (actoxumab), fully human IgG1 mAb CDA (with HCV VH CDRs): VH CDR1-3 of CDA1 replaced by VH CDRs of HCV1; residues not printed (protein)
chain 1: QVQLVESGGGVVQPGRSLRLSCAASGFTFNNYGMHWVRQAPGKGLEWVALIWFDENNKDYTDSVKGRFTISRDNSKNTLYLQMNSLRAEDTAVYYCARDISLVRDAFIYFDFWGQGTVVTVSS
chain 2: DIQMTQSPSSVSASVGDRVTITCRASQGISSWLAWYQHKPGKAPKLLIYAASSLQSGVPSRFSGSGSGTDFTLTISSLQPEDFATYYCQQANSFPWTFGQGTKVEIK
On to B2, for which the other: Predicted Human t1/2, β (parent: est. 690) is 15 days.

B3: HCV1, fully human IgG1 mAb HCV (with CDA VH CDRs): VH CDR1-3 of HCV1 replaced by VH CDRs of CDA1; residues not printed (protein)
chain 1: EVQLLESGGGVVQPGRSLRLSCTASGFSFSNYGMHWVRQTPGKGLEWLAVIWYDGSNEYYADSVRGRFTISRDNSKNTLFLQMNSLKTEDTAMYYCARWGMVRGVIDVFDIWGLGTLVTVSS
chain 2: ELTLTQSPATLSLSPGERATLSCRASQSVSSYLAWYQQKPGQAPRLLIYDASNRATGIPARFSGSGSGTDFTLTISSLEPEDFAVYYCQQRSNWITFGQGTRLEIK
As for B3, the other: Predicted Human t1/2, β (parent: est. 270) is 22.9 days.

Values taken from article PMC4622054.
